Measured values taken from patent US20260347464 (published 2026).

T1: MusCD100-His (mouse, UniProt O09126)
T1 chain: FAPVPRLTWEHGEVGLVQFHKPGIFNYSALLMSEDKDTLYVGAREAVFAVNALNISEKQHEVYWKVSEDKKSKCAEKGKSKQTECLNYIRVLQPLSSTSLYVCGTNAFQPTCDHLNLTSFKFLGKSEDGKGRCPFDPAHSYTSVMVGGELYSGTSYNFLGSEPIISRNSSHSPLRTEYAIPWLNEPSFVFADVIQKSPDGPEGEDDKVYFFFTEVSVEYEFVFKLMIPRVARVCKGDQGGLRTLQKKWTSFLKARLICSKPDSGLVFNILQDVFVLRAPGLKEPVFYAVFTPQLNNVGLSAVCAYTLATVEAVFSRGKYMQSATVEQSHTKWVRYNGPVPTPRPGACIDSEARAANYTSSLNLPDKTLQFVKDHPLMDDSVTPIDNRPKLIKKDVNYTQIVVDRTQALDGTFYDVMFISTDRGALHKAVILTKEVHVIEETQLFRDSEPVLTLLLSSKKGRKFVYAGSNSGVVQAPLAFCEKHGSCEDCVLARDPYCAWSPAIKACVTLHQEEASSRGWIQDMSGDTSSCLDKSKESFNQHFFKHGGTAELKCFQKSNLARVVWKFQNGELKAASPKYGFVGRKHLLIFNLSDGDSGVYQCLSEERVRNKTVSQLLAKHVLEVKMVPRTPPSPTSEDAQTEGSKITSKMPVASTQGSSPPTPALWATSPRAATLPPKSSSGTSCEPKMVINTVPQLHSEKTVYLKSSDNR

T2: MusCD100 (cell surface) (mouse, UniProt O09126)
T2 chain: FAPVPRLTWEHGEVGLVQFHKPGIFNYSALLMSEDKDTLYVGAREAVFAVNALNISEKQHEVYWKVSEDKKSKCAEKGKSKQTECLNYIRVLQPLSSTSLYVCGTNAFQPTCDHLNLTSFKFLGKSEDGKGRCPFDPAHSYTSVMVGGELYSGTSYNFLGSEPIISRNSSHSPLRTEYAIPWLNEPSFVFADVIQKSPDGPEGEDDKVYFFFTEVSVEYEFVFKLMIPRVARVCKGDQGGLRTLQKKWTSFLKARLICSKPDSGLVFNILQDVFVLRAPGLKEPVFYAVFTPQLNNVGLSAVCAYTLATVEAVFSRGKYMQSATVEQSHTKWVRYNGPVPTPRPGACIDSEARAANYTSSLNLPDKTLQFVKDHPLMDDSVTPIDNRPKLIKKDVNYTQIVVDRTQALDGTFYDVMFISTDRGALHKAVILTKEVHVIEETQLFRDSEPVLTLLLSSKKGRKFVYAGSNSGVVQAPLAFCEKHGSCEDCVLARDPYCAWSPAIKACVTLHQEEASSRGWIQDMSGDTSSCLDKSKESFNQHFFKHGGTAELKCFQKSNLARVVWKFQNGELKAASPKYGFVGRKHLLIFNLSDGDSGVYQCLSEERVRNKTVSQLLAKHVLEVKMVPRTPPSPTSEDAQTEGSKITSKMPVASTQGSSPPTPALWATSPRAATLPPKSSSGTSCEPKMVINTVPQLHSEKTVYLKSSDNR


Legend:
[1] = molecular target: HuCD100-His (human, UniProt Q92854); assay: ELISA
[2] = molecular target: T1, MusCD100-His; assay: ELISA
[3] = molecular target: T3, HuCD100 (cell surface) (human, UniProt Q92854); assay: FACS, HuPBMC
[4] = molecular target: T2, MusCD100 (cell surface); assay: FACS, HEK293
[5] = molecular target: T3, HuCD100 (cell surface); assay: FACS, Jurkat
[6] = molecular target: T3, HuCD100 (cell surface); assay: FACS, HEK293

HuCD100-His, sequence (Q92854 22-734): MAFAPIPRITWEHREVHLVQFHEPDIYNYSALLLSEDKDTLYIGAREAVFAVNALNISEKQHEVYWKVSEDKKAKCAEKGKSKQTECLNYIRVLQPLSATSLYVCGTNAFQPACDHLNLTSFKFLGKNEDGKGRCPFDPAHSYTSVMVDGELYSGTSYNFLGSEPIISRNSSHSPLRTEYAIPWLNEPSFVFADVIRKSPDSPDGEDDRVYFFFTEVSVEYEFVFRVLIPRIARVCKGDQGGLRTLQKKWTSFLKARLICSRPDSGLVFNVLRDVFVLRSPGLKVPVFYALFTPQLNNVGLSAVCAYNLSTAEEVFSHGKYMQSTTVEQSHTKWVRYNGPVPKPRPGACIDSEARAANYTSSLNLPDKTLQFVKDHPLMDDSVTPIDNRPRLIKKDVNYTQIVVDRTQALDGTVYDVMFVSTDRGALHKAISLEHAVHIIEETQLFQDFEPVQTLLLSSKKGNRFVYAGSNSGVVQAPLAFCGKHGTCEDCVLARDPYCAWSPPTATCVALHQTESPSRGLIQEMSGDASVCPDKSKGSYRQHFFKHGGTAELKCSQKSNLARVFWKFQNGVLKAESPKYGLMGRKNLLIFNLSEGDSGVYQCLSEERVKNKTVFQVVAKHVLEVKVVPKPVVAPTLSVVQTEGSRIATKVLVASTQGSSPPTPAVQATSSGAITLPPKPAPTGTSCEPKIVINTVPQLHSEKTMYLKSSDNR
T3 sequence (Q92854 22-734): as above

Binder | EC50 [1] [ng/mL] | EC50 [2] [ng/mL] | EC50 [3] [µg/mL] | EC50 [4] [µg/mL] | EC50 [5] [µg/mL] | EC50 [6] [µg/mL]
A15 (antibody, V domains shown) VH: EVQLLESGGGLIQPGGSLRLSCAASGFTVSSNYMSWVRQAPGKGLEWVSVIYSGGSTYYADSVKGRFTISRDNSKNTLYLQMNSLRAEDTAVYYCAREVEGGMDVWGQGTTVTVSS VL: SYVLTQPPSVSVSPGQTASIICSGDKLGDKYVYWYQQKSGQSPVLVIYQDRKRPSGIPERFSGSNSGNTASLAISGLQSEDEADYYCAAWDDSLNGWVFGGGTKLTVL | 7.6 | 10.1 | 0.00589 | 0.0548 | 0.00851 | 0.0269
H74 (antibody, V domains shown) VH: QVQLQQWGAGLLKPSETLSLTCAVYGGSFSGYYWSWIRQPPGKGLEWIGEINHSGSTNYNPSLKSRVTISVDTSKNQFSLKLSSVTAADTAVYYCAGTRWLQFPLNYWGQGTLVTVSS VL: SYVLTQPPSVSVSPGQTASITCSGDKLGDKYAYWYQQKPGQSPVLVLYQDAKRPSGIPERFSGSNSGNTATLTISGTQAMDEADYYCQAWDSSTAGYVFGTGTKVTVL | 4.67 | 4.78 | 0.00828 | 0.05 | 0.0138 | 0.0274
B13 (antibody, V domains shown) VH: QVQLQQWGAGLLKPSETLSLTCAISSGSFSGYYWTWIRQPPGKGLEWIGETNHNGFTTYNTSLKSRITISIDASKNQFYLNLSSVTAADTATYFCARGPAYYADALDGFDIWGQGTMVTVSS VL: QSVLTQPPSVSVSPGQTASITCSGDKLGDKYVSWYQQKPGQSPVLVIYQDNKRPSGIPERFSGSNSGNTATLTISGTQAMDEADYYCQAWDSSTKAYVFGAGTKVTVL | 7.33 | 8.42 | 0.0109 | 0.0697 | 0.0185 | 0.0346
H12 (antibody, V domains shown) VH: QVQLQESGPGLVKPSGTLSLTCAVSGGSISSSNWWSWVRQPPGKGLEWIGEIYHSGSTNYNPSLKSRVTISVDKSKNQFSLKLSSVTAADTAVYYCARFVSSGYLGAFDIWGQGTMVTVSS VL: QSVLTQPPSVSVSPGQTASITCSGDRLGDKYSYWYQQKPGQSPVLVIYQDSKRPSGIPERFSGSNSGNTATLTISGTQAMDEADYYCQVWDSSTAVFGGGTKLTVL | 11.3 | 11.2 | 0.0177 | 0.0758 | 0.028 | 0.0369
H21 (antibody, V domains shown) VH: EVQLVQSGGGLVQPGRSLRLSCAASGFTFDDYAMHWVRQAPGKGLEWVSGISWNSGSIGYADSVKGRFTISRDNAKNSLYLQMNSLRAEDTALYYCAKDIGGSYFDYYYYGMDVWGQGTLVTVSS VL: EIVLTQSPATLSLSPGERATLSCRTSHNVNTYIAWYQQKPGQAPRLLFYDSSTRLPDTPARFSGSGSGTDFTLTISSLEPEDFAVYYCQQRTSWPLTFGGGTKVEIK | 5.95 | 6.86 | 0.0154 | 0.0814 | 0.0258 | 0.0374
H5 (antibody, V domains shown) VH: QLQLQESGPGLVKPPGTLSLTCAVSGGSISSSNWWSWVRQPPGKGLEWIGEIYHSGSTNYNPSLKSRVTISVDTSKNQFSLKLSSVTAADTAVYYCAVYDFWSGSGLDYWGQGTLVTVSS VL: SYVLTQPPSVSVSPGQTASITCSGDKLGDKFASWYQQKPGQSPVLVIYQDRKRPSRIPERFSGSNSGNTATLTITGTQTIDEADYYCQAWDSGTVIFGGGTKLTVL | 6.39 | 7.22 | 0.0132 | 0.0606 | 0.0184 | 0.0288
A14 (antibody, V domains shown) VH: ETQLVESGGGLVQPGGSLRLSCAASGFPFSSYEMNWVRQAPGKGLEWVAEISSSGSTIYYADSVKGRFTISRDNAKKSLYLQMNSLRAEDTAVYYCARGRFEGYCSSTNCHTGAFDFWGQGTMVTVSS VL: not shown | 6.13 | 7.92 | 0.0145 | 0.0599 | 0.0195 | 0.0277

Now from value to binder:

EC50 [1] [ng/mL] | EC50 [2] [ng/mL] | EC50 [3] [µg/mL] | EC50 [4] [µg/mL] | EC50 [5] [µg/mL] | EC50 [6] [µg/mL] | Binder
11.9 | 9.36 | 0.177 | 0.118 | 0.108 | 0.0879 | C-B71 (antibody, V domains shown) VH: QVQLQESGPGLVKPSQTLSLTCTVSGGSISSGGYYWSWIRQHPGKGLEWIGYIYYSGSTYYNPSLKSRVTISVDTSKNQFSLKLSSVTAADTAVYYCAREGVAAAGIDYWGQGTPVTVSS VL: NIQLTQSPSSVSASVGDRVTITCRASQGISSWLAWYQQKPGKAPKLLISTASSVQSGVPTRFSASGSGTDFTLTISSLQPEDFATYYCQQGYRTPWTFGQGTKVEIK
14.1 | 54.1 | 0.0194 | 0.185 | 0.73 | 0.0927 | C-C081 (antibody, V domains shown) VH: QVQLLESGGGLVKPGGSLRLSCAASGFTFSSYSMNWVRQAPGKGLEWVSSISSSSSYIYYADSVKGRFTISRDNAKNSLYLQMNSLRAEDTAVYYCARDHYPGPDAFDVWGQGTMVTVSS VL: not shown
9.68 | 10.9 | 0.0104 | 0.0504 | 0.0162 | 0.0225 | H96 (antibody, V domains shown) VH: QVQLQQWGAGLLKPSETLSLTCAVYGGSFSGYYWSWIRQPPGKGLEWIGEINHSGSTNYNPSLKSRVTISVDTSKNQFSLKLSSVTAADTAVYYCARESNSYGYGTDYWGQGTLVTVSS VL: QSALTQPPSVSVSPGQTATITCSGDKLGEKYAFWYQQKPGQSPVLVIYQDNKRPSGIPERFTGSNSGNTATLTIFGTQTMDEADYYCQAWDSSTYVFGTGTKVTVL
10.7 | 31 | 0.0859 | 0.31 | 0.449 | 0.167 | C-C171 (antibody, V domains shown) VH: QVQLQESGPGLVKPSGTLSLSCTVSGGSMSSNYLWSWVRQTPGKGLQWIGDIFHSGRTYYNPSLKRRVTISVDKSKNQFSLKLSSVTAADTAVYYCARQGWTTPFDYWGQGTPVTVSS VL: DIQLTQSPSSVSASVGDRVTITCRASQGISSWLAWYQQKPGKAPKLLIYAASSLQSGVPSRFSGSGSGTDFTLTISSLQPEDFATYYCLQDVYYPWTFGQGTTVEIK
